In article PMC5428419 one finds Kd, koff and kon data, which are given here for 1 substance.

Usually Kd stands for the free concentration of one partner at which half of the binding sites on the other are occupied at equilibrium, for simple one-to-one binding. Usually koff stands for the rate constant with which the complex falls apart. The kon is a measure of how fast the partners come together.

This experiment deals with biotinylated sRAGE from transgenic silkworms co-expressing BirA and fed biotin bait (human) (UniProt Q15109). Nature of the experiment: SPR; Biacore 2000; biotinylated sRAGE on SA sensor chip via the C-terminal biotin, about 560 RU; F-AGEs 0.25-4 uM injected, single-cycle kinetics, 30 uL/min, 25 C, PBS (-); 1:1 Langmuir model.
UniProt Q15109, sequence (Q15109 23-332): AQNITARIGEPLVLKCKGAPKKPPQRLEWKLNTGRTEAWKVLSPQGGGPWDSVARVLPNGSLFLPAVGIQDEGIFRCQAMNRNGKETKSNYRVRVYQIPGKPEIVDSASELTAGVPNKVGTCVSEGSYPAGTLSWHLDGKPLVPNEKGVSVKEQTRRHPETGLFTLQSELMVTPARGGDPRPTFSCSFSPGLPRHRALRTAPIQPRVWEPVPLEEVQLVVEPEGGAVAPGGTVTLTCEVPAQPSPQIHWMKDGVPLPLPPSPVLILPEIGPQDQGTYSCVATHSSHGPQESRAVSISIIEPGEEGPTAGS

With “fructose-BSA (fructose-derived AGE-BSA) (from UniProt P02769 25-607) (ligand)”, the Kd was 725 nM, the koff is 0.00165 s⁻¹ and the kon stood at 7250 M⁻¹ s⁻¹.
